The Kd is the constant that tells how readily two partners part at equilibrium. Read a low Kd as higher affinity.

The assay addresses T1, NAC CoV2 Mosaic (SARS-COV-2).
T1 construct: also called NAC Mosaic (The Native Antigen Company)
The experiment in a line: ForteBio. For orientation: In BLI a coated tip is dipped into the sample, and binding shifts an interference pattern.

B1: SC2 antibody 3396 (antibody, V domains shown)
VH: GVQLVESGGGLVQPGRSLRVSCAASGFTFADYAMHWVRQAPGKGLEWVSGISWNSGNIAYADSVKGRFTISRDNAKNSLYLQMDSLRPDDTALYYCVKASTLYYYFYMDVWGKGTTVTVSS
VL: QSALTQPPSASGSPGQSVTISCTGTSSDVGGYDYVSWYQQHPGKAPKFMIYEVSKRPSGVPDRFSGSKSGNTASLTVSGLQAEDEADYYCCSYAGSNNYVFGTGTKVTVLG
notes: also called Anti-SARS-COV-2 antibody 3396
B1 showed a Kd of 21 nM.
